Laboratory results as given in US20250355001A1, “METHOD FOR DETECTING A TAU PROTEIN FRAGMENT IN A SAMPLE” (GTINVENT LIMITED, priority 2022, published 2025).

Key:
htau40 = molecular target: T1, htau40 (Homo sapiens, UniProt P10636); assay: Biacore X100 SPR kinetics of anti-tau mAbs on immobilised htau40; format: binding
T1 construct: Full length tau (hT40)
Outline: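 Htau40 amine-coupled to CM5 chip (~250 RU, pH 4.0 immobilisation), reference flow cell subtracted; mAb injected at 0.78–25 nM in HBS-EP+, 120 s association, 600 s dissociation, glycine pH 1.5 regeneration. Kinetic and affinity constants from 1:1 binding model fit.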

dGAE aggregates = dGAE aggregates (Homo sapiens, UniProt P10636); assay: Epitope occlusion assay: dGAE aggregation with/without LMTM, 423 mAb capture ELISA; format: biochemical; conditions: total and supernatant samples; 423 mAb capture
Chain of dGAE aggregates (P10636 614-708): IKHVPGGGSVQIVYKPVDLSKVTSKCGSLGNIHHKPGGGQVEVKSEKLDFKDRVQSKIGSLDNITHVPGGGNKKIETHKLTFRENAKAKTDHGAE
Description: During dGAE aggregation in vitro, scAb binding regions on dGA/dGAE are ‘hidden’ or ‘occluded’ which leads to a loss of immunoreactivity in aggregation samples. Here we have shown the occlusion of binding regions in aggregated dGAE samples and the recovery of immunoreactivity in the presence of LMTM, a tau-aggregation inhibitor. For preparing the aggregates, 10 μl 10 mM DTT was added to 1000 μl 100 μM dGAE and agitated with/without LMTM (1:5 ratio) at 700 rpm for 24 h at 37° C. Following overnight agitation, one third of each sample was kept aside as ‘total’ and the rest was spun down at 16000×g for 30 min and separated into ‘supernatant’ and ‘pellet’. The pellet was then resuspended in half the original volume for further experiments. […] Doubling dilutions of dGAE aggregate ‘total’, ‘supernatant’ and ‘pellet’ samples at 10 μg/ml starting concentration were added to designated wells in doubling dilutions in 1×PBS. dGAE monomer (non-aggregated) was included as assay control. All double dilutions were done in final volumes of 100 μl. This was left to incubate on lab bench for 1 h followed by the addition of test scAbs at 10 μg/ml. Anti-HuCk HRP labelled secondary antibody was added as described previously and ELISA data generated is represented using the graph below.

[1] = tested on: 13 aa tau peptides of hT40; assay: Alanine scanning mutagenesis (ASM) peptide ELISA; format: binding, human; conditions: alanine substituted peptides; numbering SEQ ID NO: 1
Description: Briefly, 5 μg/ml streptavidin (Thermo Fisher) was adsorbed to Nunc 96-well MaxiSorp plates and following incubation at 37° C. for 1 h, the plates were washed as normal and blocked with 2% MPBS. N-terminally biotinylated peptides (Prolmmune Ltd) were added to the plates and incubated for 1 h at 37° C. Subsequently, test scAbs at starting concentrations of 100-500 nM was added and double diluted across the plate for each peptide and incubated for 1 h at 37° C. Rest of the ELISA was conducted as described above and the plates were read at absorbance 450 nm. Immunoreactivity of the scAb of interest was quantified as the % of scAb was bound for each peptide at a chosen concentration (FIG. 15-20).

aggregated dGAE = aggregated dGAE (Homo sapiens, UniProt P10636); assay: Capture ELISA ranking mAbs for capture of dGAE aggregates; format: binding; conditions: capture mAb 1 μg/ml; 800 nM aggregated dGAE
Chain of aggregated dGAE (P10636 614-708): as above
Description: The aggregation cascade of natively unfolded tau into insoluble filaments is a defining pathological feature of AD. Therefore, it is logical to target aggregated tau filaments for both therapeutic and diagnostic purposes. The following experiment was performed to assess the ability of our dGA mAb panel to bind aggregated dGAE using a capture ELISA method. Aggregates were prepared by incubating 100 μM dGAE and 10 mM dTT for 24 h at 37° C. with shaking at 700 RPM. The following day, dGAE aggregates were centrifuged at 17,000×g for 20 min and the supernatant was removed. The remaining pellet was washed with 10 mM phosphate buffer and centrifuged as above. Washing was repeated a further two times to remove any remaining dGAE monomer. The dGAE pellet was resuspended in 100 μl of 10 mM phosphate buffer. (Using a separate capture ELISA based quantification, we have worked out the efficiency of our dGAE aggregation as 80%)
Following washing, 800 nM aggregated dGAE was added to the designated wells, double diluted across the plate and incubated for 1 h at RT. The plate was washed again and 1 μg/ml S1G2 scAb was added as detection antibody and incubated for 1 h at RT. To the row where S1G2 mAb was used for capture, […] s1D12 scAb was added as […] instead of S1G2. The assay was developed using HRP labelled HuCK as described previously.

[2] = Table 27, mAb format, immobilised htau40
[3] = second Table 25, newly converted mAbs, hT40

T1 sequence (P10636 1-441 isoform P10636-8): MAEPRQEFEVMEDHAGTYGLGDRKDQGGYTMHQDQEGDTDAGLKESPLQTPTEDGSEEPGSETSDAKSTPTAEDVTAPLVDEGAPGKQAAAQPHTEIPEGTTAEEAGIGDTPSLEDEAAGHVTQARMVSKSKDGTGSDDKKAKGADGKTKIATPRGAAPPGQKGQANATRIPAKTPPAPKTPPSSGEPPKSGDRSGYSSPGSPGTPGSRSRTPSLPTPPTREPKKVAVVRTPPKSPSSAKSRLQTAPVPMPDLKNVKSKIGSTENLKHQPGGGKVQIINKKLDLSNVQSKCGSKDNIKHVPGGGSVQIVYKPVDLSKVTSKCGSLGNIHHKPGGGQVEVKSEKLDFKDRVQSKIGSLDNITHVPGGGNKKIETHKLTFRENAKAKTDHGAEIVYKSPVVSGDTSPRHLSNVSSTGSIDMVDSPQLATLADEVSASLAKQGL

B1: CE2: anti-tau core clone, Table 10; SEQ ID NO: 366 (protein)
scFv: QVQLQESGPSLVKPSQTLSLTCTVSGFSLTNYPVGWVRQAPGKALEWIGNIENDGSANYASALKSRLSITRDTSKNQVSLSLSSATTEDTAVYYCGREFGGSDGYTYFVDIDYWGPGLLVTVSSEGKSSGASGESKVDDQAVLTQPSSVSKSLGQSVSITCSGSSSNVGYGNYVSWFQQVPGSAPKILIYGATSRASGVPDRFSGSRSGNTATLTITSLQAEDEADYYCASYDGSSSGVFGSGTRLTVLG
modifications: CE2/E1B8 amino acid sequence
ka (htau40; [2]): 457900 M⁻¹ s⁻¹ | kd (htau40; [2]): 0.005218 s⁻¹ | ka (htau40; [3]): 323800 M⁻¹ s⁻¹ | kd (htau40; [3]): 0.001367 s⁻¹ | immunoreactivity to dGAE aggregation samples prepared in the presence of LMTM (dGAE aggregates): increase in immunoreactivity | critical binding residues [1]: 323 (G), 324 (S), 325 (L), 326 (G), 327 (N) and/or 328 (I)

B2: S1D12: sheep-derived anti-tau core clone; scFv SEQ ID NO: 32, VH 443, VL 444 (protein)
scFv: QVQLQESGPSLVKPSQTLSLTCTVSGFSLNNNAVGWVRQAPGKVPESLVGCSSDGTCYYNSALKSRLDITRDTSKNQISLSLSSVTTDDAAVYYCTRGHYSIYGYDYLGTIDYWGPGLLVTVSSEGKSSGASGESKVDDQAVLTQPSSVSGSLGQRVSITCSGSSSNVGGGNSVGWYQHLPGSGLKTIIYDTNSRPSGVPDRFSGSRSGNTATLTINSLQAEDEGDYYCVTGDSTTHDDLVGSGTRLTVLG
modifications: S1D12 amino acid sequence
ka (htau40; [2]): 405800 M⁻¹ s⁻¹ | kd (htau40; [2]): 4.093e-05 s⁻¹ | Kd (htau40; as quoted in Example 32, read-out: affinity): 0.12 nM | immunoreactivity to dGAE aggregation samples prepared in the presence of LMTM (dGAE aggregates): increase in immunoreactivity | ability to capture dGAE aggregates (aggregated dGAE): most efficient at capturing aggregated dGAE | critical binding residues [1]: 343 (K), 346 (F) and/or 349 (R)

B3: S1G2: sheep-derived anti-tau core clone; scFv SEQ ID NO: 81, VH 455, VL 456 (protein)
scFv: QVQLQESGPSLVKPSQTLSLTCTVSGFSLTSNSVGWVRQAPGKAPEWVAGIDTDGEEGYNPALNSRLSITRDTSKSQVSLSLSSVTSEDTAVYYCGRSYRADGLAYGYVQAIDYWGPGLLVTVSSEGKSSGASGESKVDDQAVVTQPSSVSGSLGQRVSITCSGSFIGISSVGWFQQLPGSGLRTIIVASDGRPSGVPDRFSMSKSGNTATLTISSLQAEDEADYFCGSSDRTPYTGVFGSGTRLTVLG
modifications: S1G2 amino acid sequence
ka (htau40; [2]): 339800 M⁻¹ s⁻¹ | kd (htau40; [2]): 4.748e-05 s⁻¹ | ability to capture dGAE aggregates (aggregated dGAE): most efficient at capturing aggregated dGAE
